Experimental findings from US20050287150A1 (UNIVERSITY OF MASSACHUSETTS, published 2005) are described below.

Assay [1] deals with T1, C. difficile toxin A (Clostridium difficile, UniProt P16154 1-2710). In words: SPR (Biacore), antibody on protein A-coated chip, toxin A flowed over. Background: SPR reads the build-up and loss of mass on a sensor chip optically.
Assay [2] has as its target T1, C. difficile toxin A. In words: ELISA, 1 ug/ml Toxin A coat, O.D. 405 nm, four-parameter fit. A general note: In an ELISA, binding on a coated surface is turned into a signal by an enzyme label.
The target in assay [3] is toxin A subfragment amino acids 660-807 (Clostridium difficile, UniProt P16154 660-807). Kind of assay: western blot on toxin A subfragments. (In general: In western blotting, separated proteins are transferred to a membrane and probed.)
For assay [4], the target named is toxin A subfragment amino acids 660-920 (Clostridium difficile, UniProt P16154 660-920). Kind of assay: western blot on toxin A subfragments.
For assay [5], the target named is toxin A subfragment amino acids 1-290 (Clostridium difficile, UniProt P16154 1-290). Kind of assay: western blot on toxin A subfragments.
Assay [6] concerns the target toxin A subfragment amino acids 1-165 (Clostridium difficile, UniProt P16154 1-165). Kind of assay: western blot on toxin A subfragments.
Assay [7] has as its target toxin A subfragment amino acids 1-415 (Clostridium difficile, UniProt P16154 1-415). Kind of assay: western blot on toxin A subfragments.
The target of assay [8] is T1, C. difficile toxin A. Kind of assay: ELISA, 1 ug/ml Toxin A coat, O.D. 405 nm.

B1: human monoclonal antibody produced by hybridoma clone 3D8 (antibody, V domains shown)
VH: QVQLVESGGGVVQPGRSLRLSCAASGFSFSNYGMHWVRQAPGKGLEWVALIWYDGSNEDYTDSVKGRFTISRDNSKNTLYLQMNSLRAEDTAVYYCARWGMVRGVIDVFDIWGQGTVVTVSS
VL: DIQMTQSPSSVSASVGDRVTITCRASQGISSWLAWYQHKPGKAPKLLIYAASSLQSGVPSRFSGSGSGTDFTLTISSLQPEDFATYYCQQANSFPWTFGQGTKVEIK
notes: also called HuMAb 3D8
Consider B1, for which the Kd (usually the constant that tells how readily two partners part at equilibrium) with C. difficile toxin A [1] amounted to 1.46 nM. In the assay with C. difficile toxin A [2], the “A (lower asymptote of the four-parameter fit)” value came out at 0.173 O.D. 405 nm, the “D (upper asymptote of the four-parameter fit)” value came to 3.66 O.D. 405 nm and the EC50 (commonly the concentration at which the effect is half-maximal) was found to be 4 ng/mL.

B2: human monoclonal antibody produced by hybridoma clone 33.3H2 (antibody, V domains shown)
VH: QVQLVESGGGVVQPGRSLRLSCAASGFTFNKYGMHWVRQAPGKGLEWVAVIWYDGTNKYYADSMKGRFTISRDNSKNMLYLQMNSLRAEDTAVYYCARDPPTANYWGQGTLVTVSS
VL: DIQMTQSPSSLSASVGDRVTITCRASQGISSWLAWYQQKPEKAPKSLIYAASSLQSGVPSRFSGSGSGTDFTLTISSLQPEDFATYYCQQYKSYPVTFGGGTKVEIK
B2: the binding result in assay [3] is “no binding”. The binding result in assay [4] was “no binding”. Further, in the assay with C. difficile toxin A [2], the “A (lower asymptote of the four-parameter fit)” value was found to be 0.172 O.D. 405 nm, the “D (upper asymptote of the four-parameter fit)” value amounted to 3.7 O.D. 405 nm and the EC50 was 5 ng/mL.

B3: human monoclonal antibody produced by hybridoma clone 1B11 (antibody, V domains shown)
VH: QMQLVESGGGVVQPGRSLRLSCEASGFSFNSYGMHWVRQAPGKGLEWVSVIWASGNKKYYIESVEGRFTISRDNSKNTLYLQMNSLRAEDTAVYYCARANFDYWGQGTLVTVSS
VL: EIVLTQSPATLSLSPGERATLSCRASQSVSSYLAWYQQKPGQAPRLLIYDASNRATGIPARFSGSGSGTDFTLTISSLEPEDFAVYYCQQRSNWSQFTFGPGTKVDIK
notes: also called HuMAb 1B11
With B3, in assay [5], the binding result is on record as “no binding”. For the same molecule, the binding result in assay [6] was “no binding”. The binding result in assay [7] is on record as “no binding”. In the assay with C. difficile toxin A [1], this molecule displayed a Kd of 0.738 nM. In the assay with C. difficile toxin A [2], the “A (lower asymptote of the four-parameter fit)” value worked out at 0.203 O.D. 405 nm, the “D (upper asymptote of the four-parameter fit)” value stood at 3.58 O.D. 405 nm and the concentration for a half-maximal effect (EC50) is 2 ng/mL. The EC50 (read off the curve) (in general, the concentration needed to bring the measured effect to its halfway point) with C. difficile toxin A [8] was around 2 ng/mL.
